This is an account of results in patent publication US20220243184, “ENGINEERED Cas-Transposon SYSTEM FOR PROGRAMMABLE AND SITE-DIRECTED DNA TRANSPOSITIONS” (THE TRUSTEES OF COLUMBIA UNIVERSITY IN THE CITY OF NEW YORK, published 2022).

The target of this data set is Himar1C9-XTEN-dCas9 (Himar-dCas9) (synthetic fusion (Haematobia irritans …, UniProt Q99ZW2 SEQ:1-1732)). The experiment in a line: no gRNA; baseline insertion hotspot. Conditions: tags: C-terminal 6xHis; chain copies: 2 inferred. As for the experimental part:
FIG. 2A through FIG. 2C. Himar-dCas9 specificity is dependent on gRNA spacing and target site. (FIG. 2A) Illustration of gRNA strand orientation and spacings to TA insertion site gRNA1 (SEQ ID NO: 53) and gRNA2 (SEQ ID No: 54) and target DNA (SEQ ID No: 55). (FIG. 2B) PCR analysis of transposon-target junctions from in vitro reactions containing 30 nM Himar-dCas9/gRNA complex, 2.27 nM transposon donor DNA, and 2.27 nM target DNA. Reactions (n=3) were run using gRNAs with spacings between 5 and 18 bp from the TA insertion site. Non-targeting gRNA (gRNA_5), no gRNA, and no transposase controls were also performed. Arrowheads indicate expected site-specific PCR products for each gRNA. Error bars indicate standard deviation. (FIG. 2C) Transposon sequencing results for reactions with no gRNAs (left, n=4) or with gRNA_4 (n=3), gRNA_8 (n=3), gRNA_12 (n=3), or gRNA_5 (n=3). The baseline random distribution of transposons along the recipient plasmid in each panel with a gRNA is shown in light gray.
To assess the distribution of transposon insertions around the target pGT-B1 plasmid, transposon sequencing was performed on transposition products resulting from three GFP-targeting gRNAs (gRNA_4, gRNA_8, and gRNA_12), a non-targeting gRNA, and no gRNA (FIG. 2C and FIG. 8). […]

B1: pGT-B1 position 5999 T/A-rich insertion site (dsDNA)
DNA 1: GCGAATTTTAAAATTCGC
DNA 2: GCGAATTTTAAAATTCGC
For the molecule B1, the binding result is “binds”.
